# Assay: soluble fraction after stress (log2 fold change); higher = more stays soluble; pooled small domains, quantitative proteomics
# Conditions: stress: pH 4
# Procedure, shortened: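 Custom libraries of small protein domains were pooled and exposed to pH 4. High-throughput quantitative proteomics then measured the log2 fold change in the amount of each domain still soluble, with higher values meaning more stayed soluble. This soluble-fraction fold change stands for aggregation propensity.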
row,Sequence,soluble fraction (log2)
1,HMGTHDAGTRFFDNLDSLLQNRDATRADVLAVYLLAVSLGFRGKHRSVSSAPQIAHYRNQAYVTLFQ,-0.386
2,HMNTETAVTKAIDQIQVMMDLRNRSVSFTRDQETGTDIIKVIDDNTGDTIRQMPSEELLTFMKNLTQ,-0.332
3,HMTPGPYETLKPAPLGSYIEPKIGFATAIEIARKEAVQLGIKTEAGGIWYGGDFPFYNVSFFDPDD,-0.985
4,HMTTTPTSQMVTELRSRGWTLRALAQRLGVGHASINRWANGVTPDRDLVAALRALVASGEVP,-0.00752
5,HMQEPVHFTRRERQVLSLILSGQATAEIAKTLGIANATVTTYKKSLYSKSGTNSLSRLLIWAMVRR,-0.332
6,HMSVISVETAKSKALAHAGLTASKVTFIENKLEWDDGRQVYDIEFYTSDYKEYDYTIDAVSGQVLEFDY,0.114
7,HMGRKPVSPEIVERVLQLAKSNPDWGYEHIAGTMRYLGYNVSATTIRHILEANGIVPDPERRL,-0.543
8,HMDTYDSIDSILEERHLSRRKLAQAIGLPPSTFQSMMSRKSGMTLEVLMKIVSYLQVSPDAFW,0.061
9,HMISEWDAAYSYAKQYYEENGHLFVPKKYVTSEGAALGKWIWEQRDSYLGLSSYKISDKKIEMLEDIGMFW,-2.73
10,HMVDPAFLAWQQKPENTWFGTDRRKTALAIAIAEEIRNDPANSNLVGAAFYARVAEETEETLN,-1.23
11,HMLNDMYAVMEIRGQGGELIAKLINQDGSPFYVKKGTTLQSGHVIDEITTTYVRAEKAGAKDYLYF,-1.65
12,HMPTNSDRLIGSDGVVSSKIDNLQGTGKVYISGLTWSARTIDGSEAEEGDIVTVEKIEGATLYVTKR,-0.293
13,HMPSNVKIPDVTGKTVAQARSAIEAAGLKVGKEKDEYSDSAKKDSVIRTNPQAGTQRREGSTVDLIVS,0.22
14,HMDFNDPTMEKSLVELPAMSNSTLRDLSENNIKKLEELAEMSVGELMDIASKISESDASALIMEARKPWF,-0.741
15,HMFNDGEIAIYTDPRGDAGETQIWKRGKGYYGQNDSFDFEAKDKKELEMKLKRWGYVLIAGSIDE,-0.0774
16,HMEDPPISQEQRQALFKMAHDHLGKDEGNKAILTLIQSHGLNSTTGMKVSTYNTIMEELVSTIQSLAA,0.0682

row,Sequence,soluble fraction (log2)
1,HMAEELELFHRLISVTGVGPKGALGFLSQLKPQEIILAILSDDVKTLSKAPGVGRKTAQRVILELKDKF,-0.828
2,HMPSLILADEPTGNLDSRNSSEVIALLKNASKRYAQTIIMITHNRSIAQSADRVLQVSDGVLTDMG,0.0603
3,HMPTSLPGIDIDEKNIVSSTGALSFKKVPKKLAIIGGGYIGLEMGSVWSRLGSSVTVIEYLNFITPG,-0.172
4,HMTRNEFLTALRGRLSALPKEEQDAALKYYEEYFDEAESEEDAARQLGSPDSIAEKILADYA,-0.00949
5,HMDNLSESQIKAYSSILSRTHEISDLAENKDYLAFSLWIANILRDPQSVREETAKRVFSALHTNTDFK,-0.793
6,HMGVGVKSTEVDYQRTSSGSDIPTDDAAWTKTIPAVKVNTFLWTRTKINYTDGTSAIFYSVGY,0.419
7,HMTNEPRLTNMGFNKMLIENYKMILEYQDFFIRISTQIGIININGFDLKLGEMTADEVLVTGKIESIDL,≥ 0.43
8,HMVEAIDQALIEKQIQAVLQENSAAVKKYQAGKTEVLAFLIGQSMRKIAKKVDANLVKNILLEQLKNK,0.077
9,HMELPMGTQLPPERELAQQMQVSRAVVNGGLAELAQQGFLEVRPRQGTFVADYRRKGNLSTLIAIMEY,0.22
10,HMAQKQLYIAGTDYTKNSTSQLVLAYFPAKPSSIKIFFDGIYQNKDKWSLFGKTIIFGLPISSNAVEVHYE,-0.201
11,HMFPTLNEDEQTIVSALQKINDQPINTLSIHTALPIPRLTSLLFQLEIKGVIKQLAGGTYHVL,-0.147
12,HMYFEDEELDRFVGTPAGAYTEEDVEEFRDVLLSLDIEEVPSWVRSLQLRGIDFPETLRPELYLL,-2.72
13,HMRDVVVVPDLSGLTQMEALSKLDAESLNIGEINYGVSEMPEGVIFKQDPVYGTELMKGDTVDIFISGR,-0.709
14,HMADRVFGHIPGVAVGSIFPDRRSLSQTGVHRPTQAGISGNKTDGADSIVVSGGYRDDRDYGDLIIYTG,-0.746
15,HMQVTPQVLRLLDVLGDKELSLRQIAEALGLSDRKNIMRNYVVPALDSGRVVRTVPNKPNSRFQKYRK,0.0808

# Reference: the domain aggregation screens of Martell et al. (2025)
